Measured values from publication PMC2829314.

Target: LRRTM2-mVenus (full-length LRRTM2 mVenus-fusion protein) (UniProt O43300)
Assay: saturation binding to cells

Chain of UniProt O43300 (O43300 34-516): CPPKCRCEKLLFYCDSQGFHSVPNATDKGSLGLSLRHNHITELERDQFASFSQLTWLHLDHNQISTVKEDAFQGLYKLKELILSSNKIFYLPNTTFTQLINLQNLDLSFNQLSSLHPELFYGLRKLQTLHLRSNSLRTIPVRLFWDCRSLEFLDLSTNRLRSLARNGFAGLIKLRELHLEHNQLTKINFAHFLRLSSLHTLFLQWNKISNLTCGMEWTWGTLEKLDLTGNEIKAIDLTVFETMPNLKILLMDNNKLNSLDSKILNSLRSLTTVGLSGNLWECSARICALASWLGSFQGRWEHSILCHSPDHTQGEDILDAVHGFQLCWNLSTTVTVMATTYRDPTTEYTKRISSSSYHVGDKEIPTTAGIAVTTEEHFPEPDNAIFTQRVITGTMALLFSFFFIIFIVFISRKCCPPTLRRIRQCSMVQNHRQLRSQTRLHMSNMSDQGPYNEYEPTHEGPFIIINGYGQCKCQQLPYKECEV

- Kd: 5.83 nM
Substance: IgNrx1β^SS4− (Ig-fusion protein of neurexin-1β lacking an insert in splice site #4) (Fc fusion)
